Assay results from US9752163B2, “Process for the production of isoprenol from mevalonate employing a diphosphomevalonate decarboxylase” (Global Bioenergies, priority 2009, dated 2017).

B1: Thermoplasma acidophilum (accession number Q9H1N1): MDP decarboxylase enzyme inferred from the genome of Thermoplasma acidophilum (protein, listed as Thermoplasma acidophilum)
chain: MLHHHHHHTYRSIGSTAYPTIGVVLLGGIANPVTRTPLHTSAGIAYSDSCGSIRSETRIYADEATHIYFNGTESTDDNRSVRRVLDRYSSVFEEAFGTKTVSYSSQNFGILSGSSDAGAASIGAAILGLKPDLDPHDVENDLRAVSESAGRSLFGGLTITWSDGFHAYTEKILDPEAFSGYSIVAFAFDYQRNPSDVIHQNIVRSDLYPARKKHADEHAHMIKEYAKTNDIKGIFDLAQEDTEEYHSILRGVGVNVIRENMQKLISYLKLIRKDYWNAYIVTGGSNVYVAVESENADRLFSIENTFGSKKKMLRIVGGAWHRRPE
B2: Picrophilus torridus MDP decarboxylase: diphosphomevalonate (MDP) decarboxylase EC 4.1.1.33 from Picrophilus torridus, expressed in E. coli from the native or codon-optimized gene (protein, listed as Picrophilus torridus)
chain: MENYNVKTRAFPTIGIILLGGISDKKNRIPLHTTAGIAYTGINNDVYTETKLYVSKDEKCYIDGKEIDLNSDRSPSKVIDKFKHEILMRVNLDDENNLSIDSRNFNILSGSSDSGAAALGECIESIFEYNINIFTFENDLQRISESVGRSLYGGLTVNYANGRESLTEPLLEPEAFNNFTIIGAHFNIDRKPSNEIHENIIKHENYRERIKSAERKAKKLEELSRNANIKGIFELAESDTVEYHKMLHDVGVDIINDRMENLIERVKEMKNNFWNSYIVTGGPNVFVITEKKDVDKAMEGLNDLCDDIRLLKVAGKPQVISKNF
modifications: DSM 9790
notes: diphosphomevalonate (MDP) decarboxylase EC 4.1.1.33 from Picrophilus torridus, expressed in E. coli from the native or codon-optimized gene
B3: Thermoplasma volcanium (accession number Q97BY2): MDP decarboxylase enzyme inferred from the genome of Thermoplasma volcanium (protein, listed as Thermoplasma volcanium)
chain: MLHHHHHHSNSSITSVAYPTIGVVLLGGIANEKTRTPLHTSAGIAYTDSCGSIRTESTIYGDSEMHIYFNGTESKDENRSVKSVLERYRNELQSFFGKKDVSYSSLNYGILSGSSDAGAASIGAILSFIDKKNDIHDIENDIRMISESAGRSLHGGLTITWSDGYSAYTERVLGPEHFNNYAIVGFSFDYPRNPSDTIHQNIIKSKRYKQRTIDADEHAHEIKEMARTDDIEGIFEKAEEDTEEYHSILREVGVLVIRENMQKLIEFIKILRKEFWNSYIVTGGSNVYVIVRRDDLERLIHIKNTFGSKPKILNVAGPAWIKKVESD

How the values were obtained:
[1] = Mevalonate decarboxylation activity followed by inorganic phosphate production (ammonium molybdate method); type: biochemical
Protocol: The reaction medium contained 100 mM mevalonate, 40 mM ATP, 10 mM MgCl2, 20 mM KCl, 0.5 mM DTT and enzyme preparation varying from 0.01 to 0.05 mg/ml of protein. 50 mM sodium citrate was used in the range of pH from 4 to 6, and 50 mM Tris-HCl for pH 7 and 7.5. Enzyme-free control assays were carried out in parallel. After 72 h incubation, inorganic phosphate was quantified colorimetrically according to the ammonium molybdate method (Gawronski J D, Benson D R, Anal. Biochem. 327 (2004) 114-118). A 50 μl sample (containing not more than 0.5 μmole of phosphate) was mixed with 150 μl of ammonium molybdate reagent containing 50% v/v acetone, 1.25 N H2SO4, 2.5 mM (NH4)6Mo7O24 and then with 10 μl 1 M citric acid. The mixture was incubated for 2 minutes at room temperature. The absorbance of ammonium phosphomolybdate formed was measured at 355 nm and the quantity of inorganic phosphate estimated using a calibration curve obtained with potassium phosphate.
(§1) The complete assay for mevalonate decarboxylation contains reaction buffer, 100 mM mevalonate, 40 mM ATP, 10 mM MgCl2, 20 mM KCl, 0.5 mM DTT and enzyme preparation at a concentration ranging from 0.01 to 0.05 mg/ml of protein. 50 mM sodium citrate is used in the range of pH from 4 to 6, and 50 mM Tris-HCl for pH 7 and 7.5. Control reactions are carried out in the absence of enzyme, substrate or co-factor.
Inorganic phosphate concentration is measured by spectroscopic colorimetry according to the ammonium molybdate method (Gawronski J D, Benson D R, Anal. Biochem. 327 (2004) 114-118). A 50 μl aliquot from the reaction assay (containing not more than 0.5 μmole of phosphate) is mixed with 150 μl ammonium molybdate reagent, containing 50% volume acetone, 1.25 N H2SO4, 2.5 mM (NH4)6Mo7O24 and then with 10 μl 1 M citric acid. The mixture is then incubated for 2 minutes at room temperature. The absorbance of ammonium phosphomolybdate formed was measured at 355 nm and the quantity of inorganic phosphate estimated using a calibration curve obtained with potassium phosphate.

[2] = Product formation as function of mevalonate concentration (permanganate assay); type: biochemical; conditions: purified enzyme, range of mevalonate concentrations (FIG. 6)
Protocol: as §1
The formation of products containing double-bonds is followed by oxidization with alkaline potassium permanganate solution, resulting in increase of absorbance at 420 nm.
To an aliquot of reaction mixture diluted with H2O to 120 μl, 80 μl of permanganate reagent, containing 5 mM KMnO4 and 50 mM NaOH, is added. The mixture is kept at room temperature for 20 min and the absorbance at 420 nm is measured. The calibration curve is prepared using commercial isoprenol.

Molecule	phosphate production with mevalonate as substrate ([1]; purified proteins (FIG. 5))	enzyme activity with mevalonate as substrate ([1]; crude lysate of E. coli, optimized gene versus native sequence (FIG. 4b))	phosphate production with mevalonate as substrate ([1]; library screening, E. coli extracts, 100 mM mevalonate, 40 mM ATP, 72 h incubation)	conversion rate [2]
B1	significant increase in phosphate production	–	–	–
B2	–	higher enzyme activity	reproducible increase in phosphate production over the background level	increase with the concentration of mevalonate
B3	significant increase in phosphate production	–	–	–
